Laboratory results reported in patent publication US20170260249A1 (IMMATICS BIOTECHNOLOGIES, published 2017).

Target: HLA-A*02:01 (peptide-receptive MHC class I molecule, heavy chain with beta-2-microglobulin) (human)
Experiment: UV-ligand exchange, anti-b2m ELISA; peptide exchange yield grade (>10% = +; >20% = ++; >50 = +++; >75% = ++++)
Text: Candidate peptides for T cell based therapies according to the present invention were further tested for their MHC binding capacity (affinity). The individual peptide-MHC complexes were produced by UV-ligand exchange, where a UV-sensitive peptide is cleaved upon UV-irradiation, and exchanged with the peptide of interest as analyzed. Only peptide candidates that can effectively bind and stabilize the peptide-receptive MHC molecules prevent dissociation of the MHC complexes. To determine the yield of the exchange reaction, an ELISA was performed based on the detection of the light chain (β2m) of stabilized MHC complexes. The assay was performed as generally described in Rodenko et al. (Rodenko et al., 2006).
96 well MAXISorp plates (NUNC) were coated over night with 2 ug/ml streptavidin in PBS at room temperature, washed 4× and blocked for 1 h at 37° C. in 2% BSA containing blocking buffer. Refolded HLA-A*02:01/MLA-001 monomers served as standards, covering the range of 15-500 ng/ml. Peptide-MHC monomers of the UV-exchange reaction were diluted 100 fold in blocking buffer. Samples were incubated for 1 h at 37° C., washed four times, incubated with 2 ug/ml HRP conjugated anti-β2m for 1 h at 37° C., washed again and detected with TMB solution that is stopped with […]. Absorption was measured at 450 nm. Candidate peptides that show a high exchange yield (preferably higher than 50%, most preferred higher than 75%) are generally preferred for a generation and production of antibodies or fragments thereof, and/or T cell receptors or fragments thereof, as they show sufficient avidity to the MHC molecules and prevent dissociation of the MHC complexes.

peptide exchange yield | Binder
50 to 75% | VLLATVTEL (synthetic peptide; source gene SLC35E1) [VLLATVTEL (SEQ ID NO: 37)]
> 75% | YIDDIFSGV (synthetic peptide; source gene TEX9) [YIDDIFSGV (SEQ ID NO: 41)]
50 to 75% | VLNPETTVV (synthetic peptide; source gene PAPSS1) [VLNPETTVV (SEQ ID NO: 27)]
50 to 75% | GLIENTYQL (synthetic peptide; source gene RNF175) [GLIENTYQL (SEQ ID NO: 32)]
20 to 50% | SILSLLIKL (synthetic peptide; source gene UBR3) [SILSLLIKL (SEQ ID NO: 7)]
50 to 75% | GLVEQLYDL (synthetic peptide; source gene NOC2L) [GLVEQLYDL (SEQ ID NO: 47)]
50 to 75% | YLETMNITL (synthetic peptide; source gene PGM2L1) [YLETMNITL (SEQ ID NO: 19)]
50 to 75% | ALISEKLETL (synthetic peptide; source gene DNAJC10) [ALISEKLETL (SEQ ID NO: 52)]
50 to 75% | VIANEIEKV (synthetic peptide; source gene APOL4) [VIANEIEKV (SEQ ID NO: 43)]
> 75% | VLLDIFTGV (synthetic peptide; source gene LIG3) [VLLDIFTGV (SEQ ID NO: 2)]
50 to 75% | RLDIQGTGQLL (synthetic peptide; source gene PIGR) [RLDIQGTGQLL (SEQ ID NO: 4)]
50 to 75% | TLSDVVVGL (synthetic peptide; source gene ELP4) [TLSDVVVGL (SEQ ID NO: 54)]
> 75% | SVLAGVVGV (synthetic peptide; source gene GUCY1A2) [SVLAGVVGV (SEQ ID NO: 26)]
50 to 75% | TLLDRVAVI (synthetic peptide; source gene FRG1B) [TLLDRVAVI (SEQ ID NO: 30)]
50 to 75% | GLDGATYTV (synthetic peptide; source gene SEMA4C) [GLDGATYTV (SEQ ID NO: 3)]
> 75% | SLFDEVRQI (synthetic peptide; source gene STX18) [SLFDEVRQI (SEQ ID NO: 5)]
50 to 75% | ALQNKVVAL (synthetic peptide; source gene NXNL2) [ALQNKVVAL (SEQ ID NO: 13)]
20 to 50% | VLLHVSVLL (synthetic peptide; source gene ZDHHC24) [VLLHVSVLL (SEQ ID NO: 45)]
10 to 20% | IGIGPVLNI (synthetic peptide; source gene TMLHE) [IGIGPVLNI (SEQ ID NO: 29)]
> 75% | GLLSVELRV (synthetic peptide; source gene DCHS2) [GLLSVELRV (SEQ ID NO: 15)]
> 75% | AIAGRLLGV (synthetic peptide; source gene CLCN5) [AIAGRLLGV (SEQ ID NO: 34)]
50 to 75% | ILAETQPEL (synthetic peptide; source gene STX18) [ILAETQPEL (SEQ ID NO: 48)]
50 to 75% | KLWEESTAQV (synthetic peptide; source gene C1orf173) [KLWEESTAQV (SEQ ID NO: 17)]
> 75% | ALAPSEGVQAA (synthetic peptide; source gene MSX1) [ALAPSEGVQAA (SEQ ID NO: 12)]
20 to 50% | SMTTNLDLKV (synthetic peptide; source gene TMEM202) [SMTTNLDLKV (SEQ ID NO: 33)]
50 to 75% | RILDIDIPLSV (synthetic peptide; source gene TFCP2L1) [RILDIDIPLSV (SEQ ID NO: 38)]
50 to 75% | VLGPEGQLV (synthetic peptide; source gene GLYATL2) [VLGPEGQLV (SEQ ID NO: 21)]

peptide exchange yield | Binder
> 75% | ALDPIIHGL (synthetic peptide; source gene PTPRG) [ALDPIIHGL (SEQ ID NO: 11)]
50 to 75% | TVPPVFVSV (synthetic peptide; source gene KCNMA1) [TVPPVFVSV (SEQ ID NO: 51)]
> 75% | SLLSELVEA (synthetic peptide; source gene KLHDC5) [SLLSELVEA (SEQ ID NO: 6)]
> 75% | ALLELLHEL (synthetic peptide; source gene LEMD2) [ALLELLHEL (SEQ ID NO: 49)]
> 75% | ILLELFTHV (synthetic peptide; source genes FBXO6, FBXO44) [ILLELFTHV (SEQ ID NO: 25)]
> 75% | FLVDSLISA (synthetic peptide; source gene HOXD10) [FLVDSLISA (SEQ ID NO: 14)]
> 75% | AILDVVVNL (synthetic peptide; source gene RFX3) [AILDVVVNL (SEQ ID NO: 10)]
50 to 75% | GLDEAIRKV (synthetic peptide; source gene GLYATL2) [GLDEAIRKV (SEQ ID NO: 28)]
> 75% | VMHDSSFSV (synthetic peptide; source gene ADNP2) [VMHDSSFSV (SEQ ID NO: 53)]
50 to 75% | NMDDVIYYV (synthetic peptide; source gene RNF145) [NMDDVIYYV (SEQ ID NO: 46)]
50 to 75% | ALDGKIYEL (synthetic peptide; source gene ARHGAP5) [ALDGKIYEL (SEQ ID NO: 39)]
> 75% | GLGPNLVGV (synthetic peptide; source genes SLC25A36, SLC25A33) [GLGPNLVGV (SEQ ID NO: 23)]
> 75% | ALLGFVTDL (synthetic peptide; source gene ATP2B4) [ALLGFVTDL (SEQ ID NO: 20)]
50 to 75% | SLYPGTETM (synthetic peptide; source gene SVIL) [SLYPGTETM (SEQ ID NO: 9)]
> 75% | KLLDNLHDL (synthetic peptide; source gene PGR) [KLLDNLHDL (SEQ ID NO: 1)]
50 to 75% | VLVSSVLGV (synthetic peptide; source gene SIGIRR) [VLVSSVLGV (SEQ ID NO: 22)]
50 to 75% | KLNSSIQYV (synthetic peptide; source gene PKHD1L1) [KLNSSIQYV (SEQ ID NO: 16)]
50 to 75% | SLLSDIIAL (synthetic peptide; source gene PIGQ) [SLLSDIIAL (SEQ ID NO: 36)]
> 75% | FLNGLEILL (synthetic peptide; source gene MDN1) [FLNGLEILL (SEQ ID NO: 44)]
> 75% | FLSGYYVTL (synthetic peptide; source gene TMEM101) [FLSGYYVTL (SEQ ID NO: 42)]
50 to 75% | TLLPTLYEI (synthetic peptide; source gene RNF180) [TLLPTLYEI (SEQ ID NO: 35)]
> 75% | SVMELLQGV (synthetic peptide; source gene TRIM5) [SVMELLQGV (SEQ ID NO: 8)]
50 to 75% | ILDAQTAFV (synthetic peptide; source gene ABCC1) [ILDAQTAFV (SEQ ID NO: 24)]
> 75% | GLLGGVIMMV (synthetic peptide; source gene SLC39A7) [GLLGGVIMMV (SEQ ID NO: 40)]
50 to 75% | ALLTAVTNV (synthetic peptide; source gene LEMD2) [ALLTAVTNV (SEQ ID NO: 31)]
> 75% | TLSTVIATV (synthetic peptide; source gene ATN1) [TLSTVIATV (SEQ ID NO: 50)]
